Data on one protein can be found in paper PMC8131568, “A noncanonical heme oxygenase specific for the degradation of c-type heme” (The Journal of Biological Chemistry, 2021).

This series concerns the molecule itself. As to the kind of experiment: crystal structure; Pden_1323 alone at 12 mg/ml; sitting-drop vapor diffusion; 14% glycerol, 18 to 25% PEG 4000, 0.3 M sodium acetate, 0.1 M Tris pH 8.8.

B1: Pden_1323 (enzyme, Paracoccus denitrificans PD1222)
chain: MKIDPIRETTDEARALARQLLEAARHASLGTLDPETGVPLVTRIALQTDADGVPLALLAGLAAHARALAVDPRAGLLIAAEAAKGDAMTHARLSILGRAVPAEPDENRRARWLERDPKAKVYLDLPDFRFWRIEPVSGLLNAGFGQAFKLTASDMLKPPAE
notes: Pden_1323, product of the pden_1323 gene of Paracoccus denitrificans PD1222 (opp gene cluster), codon-optimized and cloned NdeI/XhoI into pET-28b(+); HugZ homolog; also called c-type heme oxygenase; CHO; source: Superdex 200 for crystallography; not shown: His-tag, N-terminal, cleaved
With B1, the binding result is on record as “binds”.
